Assay results published in US20050064384A1, “Recruitment of mst1 or mst2 protein kinase to induce apoptosis in eukaryotic cells” (priority 2001, published 2005).

Molecular target: FLAG-tagged wild type (wt) MST1 (mouse) (UniProt Q9JI11)
Assay: cell-based or functional assay

FLAG-tagged wild type (wt) MST1 (mouse), sequence (Q9JI11 other isoform, or with tags, fused parts or gaps limits assumed): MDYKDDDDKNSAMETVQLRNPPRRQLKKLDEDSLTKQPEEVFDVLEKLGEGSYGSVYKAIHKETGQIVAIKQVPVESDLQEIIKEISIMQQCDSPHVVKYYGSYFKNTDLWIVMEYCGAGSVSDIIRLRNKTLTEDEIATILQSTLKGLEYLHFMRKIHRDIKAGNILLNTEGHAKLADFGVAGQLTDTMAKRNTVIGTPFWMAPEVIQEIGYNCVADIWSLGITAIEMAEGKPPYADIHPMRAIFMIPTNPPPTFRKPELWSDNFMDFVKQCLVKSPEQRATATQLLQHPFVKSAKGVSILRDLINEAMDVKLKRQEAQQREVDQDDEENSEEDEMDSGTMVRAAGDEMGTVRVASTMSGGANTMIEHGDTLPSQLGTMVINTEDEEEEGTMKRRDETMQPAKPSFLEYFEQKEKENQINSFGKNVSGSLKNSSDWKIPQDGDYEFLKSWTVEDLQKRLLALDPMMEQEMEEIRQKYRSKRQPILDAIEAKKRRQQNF

fraction of annexin V-stained NIH3T3 cells: 50%
Sequence: NORECAAX (NORE fused to the Ki-Ras4B membrane-association CAAX segment) (from UniProt Q5EBH1 1-413)
